Laboratory results taken from patent US20240025992A1 (Janssen / Centocor, published 2024).
Like-named read-outs stand apart in the source and are kept apart here.

T1: recombinant human DLL3 (Example 9, construct not named) (human, UniProt Q9NYJ7 27-492, limits assumed)
T1 construct: also called DLL3 antigen
T1 sequence: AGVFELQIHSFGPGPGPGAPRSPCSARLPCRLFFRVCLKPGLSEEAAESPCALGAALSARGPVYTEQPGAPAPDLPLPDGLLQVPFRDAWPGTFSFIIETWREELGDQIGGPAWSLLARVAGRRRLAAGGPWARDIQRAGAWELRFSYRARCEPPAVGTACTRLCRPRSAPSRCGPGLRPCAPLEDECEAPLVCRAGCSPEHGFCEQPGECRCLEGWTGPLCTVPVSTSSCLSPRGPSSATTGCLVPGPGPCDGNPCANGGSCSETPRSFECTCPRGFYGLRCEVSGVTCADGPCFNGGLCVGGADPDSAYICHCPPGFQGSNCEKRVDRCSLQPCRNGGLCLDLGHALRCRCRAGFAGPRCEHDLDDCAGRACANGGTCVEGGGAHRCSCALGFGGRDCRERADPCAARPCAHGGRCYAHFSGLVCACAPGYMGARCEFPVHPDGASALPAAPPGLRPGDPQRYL

T2: human DLL3 on DLL3+ tumor cells (human, UniProt Q9NYJ7 27-618)
T2 sequence: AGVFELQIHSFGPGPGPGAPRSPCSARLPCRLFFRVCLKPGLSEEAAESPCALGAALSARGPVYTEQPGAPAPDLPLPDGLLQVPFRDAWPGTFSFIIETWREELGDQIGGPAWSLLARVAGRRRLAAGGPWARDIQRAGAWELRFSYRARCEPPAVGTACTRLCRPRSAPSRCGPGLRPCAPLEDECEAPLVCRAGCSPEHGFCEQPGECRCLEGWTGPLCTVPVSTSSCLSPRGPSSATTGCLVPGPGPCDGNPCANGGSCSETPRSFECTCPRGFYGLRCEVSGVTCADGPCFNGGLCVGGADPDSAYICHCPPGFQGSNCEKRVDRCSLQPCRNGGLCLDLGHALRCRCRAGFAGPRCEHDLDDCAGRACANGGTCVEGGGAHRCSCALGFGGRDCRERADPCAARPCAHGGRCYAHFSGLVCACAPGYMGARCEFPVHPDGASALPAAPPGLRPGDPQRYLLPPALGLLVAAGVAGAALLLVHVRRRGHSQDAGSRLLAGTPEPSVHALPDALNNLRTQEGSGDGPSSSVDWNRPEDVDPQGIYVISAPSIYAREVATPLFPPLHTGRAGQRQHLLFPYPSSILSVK

B1: DL3B585 (bispecific antibody, human IgG1, lambda, L234A L235A)
scFv: DIQMTQSPSSLSASVGDRVTITCRASQGISNYLAWFQQKPGKAPKSLIYAASSLQSGVPSKFSGSGSGTDFTLTISSLQPEDFATYYCQQYNSYPYTFAQGTKLEIKGGSEGKSSGSGSESKSTGGSQVQLVQSGAEVKKPGASVKVSCKASGNTFTNYYIHWVRQAPGQGLEWMGIINPSGGSTSYAQKLQGRMTMTRDTSTSTVYMELSSLRSEDTAVYFCARQGPFIGDAFDIWGQGTMVTVSSEPKSSDKTHTCPPCPAPEAAGGPSVFLFPPKPKDTLMISRTPEVTCVVVSVSHEDPEVKFNWYVDGVEVHNAKTKPREEQYNSTYRVVSVLTVLHQDWLNGKEYKCKVSNKALPAPIEKTISKAKGQPREPQVYVLPPSREEMTKNQVSLLCLVKGFYPSDIAVEWESNGQPENNYLTWPPVLDSDGSFFLYSKLTVDKSRWQQGNVFSCSVMHEALHNHYTQKSLSLS
heavy: QVQLQQSGPRLVRPSQTLSLTCAISGDSVFNNNAAWSWIRQSPSRGLEWLGRTYYRSKWLYDYAVSVKSRITVNPDTSRNQFTLQLNSVTPEDTALYYCARGYSSSFDYWGQGTLVTVSSASTKGPSVFPLAPSSKSTSGGTAALGCLVKDYFPEPVTVSWNSGALTSGVHTFPAVLQSSGLYSLSSVVTVPSSSLGTQTYICNVNHKPSNTKVDKKVEPKSCDKTHTCPPCPAPEAAGGPSVFLFPPKPKDTLMISRTPEVTCVVVSVSHEDPEVKFNWYVDGVEVHNAKTKPREEQYNSTYRVVSVLTVLHQDWLNGKEYKCKVSNKALPAPIEKTISKAKGQPREPQVYVYPPSREEMTKNQVSLTCLVKGFYPSDIAVEWESNGQPENNYKTTPPVLDSDGSFALVSKLTVDKSRWQQGNVFSCSVMHEALHNHYTQKSLSLSPG
light: QSALTQPASVSGSPGQSITISCTGTSSNIGTYKFVSWYQQHPDKAPKVLLYEVSKRPSGVSSRFSGSKSGNTASLTISGLQAEDQADYHCVSYAGSGTLLFGGGTKLTVLGQPKAAPSVTLFPPSSEELQANKATLVCLISDFYPGAVTVAWKADSSPVKAGVETTTPSKQSNNKYAASSYLSLTPEQWKSHRSYSCQVTHEGSTVEKTVAPTECS
notes: DLL3 arm: DL3B279-LH-scFv-Fc; CD3 arm: CD3B376-Fab-Fc; also called CD3B376-Fab; DL3B279-LH-scFv
B2: DL3B587 (bispecific antibody, human IgG1, kappa, L234A L235A)
scFv: B1 scFv
heavy: EVQLVESGGGLVKPGGSLRLSCAASGFTFSRYNMNWVRQAPGKGLEWVSSISTSSNYIYYADSVKGRFTFSRDNAKNSLDLQMSGLRAEDTAIYYCTRGWGPFDYWGQGTLVTVSSASTKGPSVFPLAPSSKSTSGGTAALGCLVKDYFPEPVTVSWNSGALTSGVHTFPAVLQSSGLYSLSSVVTVPSSSLGTQTYICNVNHKPSNTKVDKKVEPKSCDKTHTCPPCPAPEAAGGPSVFLFPPKPKDTLMISRTPEVTCVVVSVSHEDPEVKFNWYVDGVEVHNAKTKPREEQYNSTYRVVSVLTVLHQDWLNGKEYKCKVSNKALPAPIEKTISKAKGQPREPQVYVYPPSREEMTKNQVSLTCLVKGFYPSDIAVEWESNGQPENNYKTTPPVLDSDGSFALVSKLTVDKSRWQQGNVFSCSVMHEALHNHYTQKSLSLSPG
light: DIQMTQSPSSLSASVGDRVTITCRARQSIGTAIHWYQQKPGKAPKLLIKYASESISGVPSRFSGSGSGTDFTLTISSLQPEDFATYYCQQSGSWPYTFGQGTKLEIKRTVAAPSVFIFPPSDEQLKSGTASVVCLLNNFYPREAKVQWKVDNALQSGNSQESVTEQDSKDSTYSLSSTLTLSKADYEKHKVYACEVTHQGLSSPVTKSFNRGEC
notes: DLL3 arm: DL3B279-LH-scFv-Fc; CD3 arm: CD3W245-Fab-Fc; also called CD3W245-Fab; DL3B279-LH-scFv
B3: D3C3B80 (bispecific antibody, human IgG1, lambda, L234A L235A)
scFv: DIQMTQSPSSLSASVGDRVTITCRASQGISNYLAWFQQKPGKAPKSLIYAASSLQSGVPSKFSGSGSGTDFTLTISSLQPEDFATYYCQQYNSYPYTFGQGTKLEIKGGSEGKSSGSGSESKSTGGSQVQLVQSGAEVKKPGASVKVSCKASGQTFTNYYIHWVRQAPGQGLEWMGIINPSGGSTSYAQKLQGRMTMTRDTSTSTVYMELSSLRSEDTAVYFCARQGPFIGDAFDIWGQGTTVTVSSEPKSSDKTHTCPPCPAPEAAGGPSVFLFPPKPKDTLMISRTPEVTCVVVSVSHEDPEVKFNWYVDGVEVHNAKTKPREEQYNSTYRVVSVLTVLHQDWLNGKEYKCKVSNKALPAPIEKTISKAKGQPREPQVYVLPPSREEMTKNQVSLLCLVKGFYPSDIAVEWESNGQPENNYLTWPPVLDSDGSFFLYSKLTVDKSRWQQGNVFSCSVMHEALHNHYTQKSLSLSPGK
heavy: QVQLQQSGPRLVRPSQTLSLTCAISGDSVFNNNAAWSWIRQSPSRGLEWLGRTYYRSKWLYDYAVSVKSRITVNPDTSRNQFTLQLNSVTPEDTALYYCARGYSSSFDYWGQGTLVTVSSASTKGPSVFPLAPSSKSTSGGTAALGCLVKDYFPEPVTVSWNSGALTSGVHTFPAVLQSSGLYSLSSVVTVPSSSLGTQTYICNVNHKPSNTKVDKKVEPKSCDKTHTCPPCPAPEAAGGPSVFLFPPKPKDTLMISRTPEVTCVVVSVSHEDPEVKFNWYVDGVEVHNAKTKPREEQYNSTYRVVSVLTVLHQDWLNGKEYKCKVSNKALPAPIEKTISKAKGQPREPQVYVYPPSREEMTKNQVSLTCLVKGFYPSDIAVEWESNGQPENNYKTTPPVLDSDGSFALVSKLTVDKSRWQQGNVFSCSVMHEALHNHYTQKSLSLSPGK
light: B1 light
notes: DLL3 arm: DL3B279 variant LH-scFv-Fc (ZW); CD3 arm: CD3B376-K477-Fab-Fc; also called CD3B376-Fab

Experiments:
[1] = biological target: T1, recombinant human DLL3 (Example 9, …); assay: SPR (Biacore T200), antibody captured by goat anti-Fc on a C1 chip, DLL3 titrated
Procedure: (§1) The binding affinity of anti-DLL3×CD3 antibodies to the recombinant human DLL3 was determined by surface plasmon resonance (SPR) using a Biacore T200 instrument. […] The association was monitored for 2 minutes and the and dissociation for 5 or 60 minutes, using a flow rate of 100 μL/min. Raw binding data was referenced by subtracting the analyte binding signals from blanks and analyzed using a 1:1 Langmuir binding model using the Biacore Insight evaluation software to obtain the kinetics which were used to calculate the binding affinity.

[2] = biological target: T2, human DLL3 on DLL3+ tumor cells; assay: cell-based or functional assay
[3] = biological target: T1, recombinant human DLL3 (Example 9, …); assay: SPR (Biacore T200), antibody captured by goat anti-Fc on a C1 chip, DLL3 titrated; remark: listed apart in the source
Procedure: as §1

[4] = biological target: T3, human CD3 (CD3 epsilon as part of the T cell receptor complex) on cells (human, UniProt P07766 23-207); assay: flow cytometry on human pan T cells, antibody titrated 3-fold from 100 nM, AlexaFluor 647 anti-human secondary antibody, GEO Mean
T3 construct: also called CD3 on Jurkat cells; CD3 on human pan T cells
T3 sequence (P07766 23-207 limits assumed, one chain of several): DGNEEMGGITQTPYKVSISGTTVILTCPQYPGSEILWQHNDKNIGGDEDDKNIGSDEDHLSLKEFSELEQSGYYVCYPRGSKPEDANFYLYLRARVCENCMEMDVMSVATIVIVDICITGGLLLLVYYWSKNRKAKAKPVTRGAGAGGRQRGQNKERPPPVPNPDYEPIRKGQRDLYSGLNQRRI
Procedure: (§2) Human Pan T Cells (Biological Specialty Corporation, Colmar, PA) were thawed and transferred to a 15 mL conical with DPBS (Dulbecco's Phosphate Saline Buffer). The cells were centrifuged 1300 rpm for 5 minutes. DPBS was aspirated and the cells were re-suspended in DPBS. The cells were counted using the Vi-cell XR cell viability analyzer and were plated at 100K/well in 100 μL DPBS. The plate was centrifuged 1200 rpm for 3 minutes and washed 2× with DPBS. The cells were stained with Violet Live/Dead stain (Thermo-Fisher) and incubated at RT in the dark for 25 min. The cells were centrifuged and washed 2× with FACS staining buffer (BD Pharmingen). Test antibodies were diluted to a final starting concentration of 100 nM in FACS staining buffer and 3-fold serial dilutions were prepared from the starting concentration for a total of 10 dilution points. The serially diluted test antibodies (100 uL/well) were added to the cells and incubated for 30 min at 37°. […] Cells were washed 2× with FACS staining buffer and re-suspended in 100 uL FACS Buffer. Cells were run on BD Celesta using FACS Diva software and analyzed using FlowJo software.

[5] = biological target: T3, human CD3 (CD3 epsilon as part of the T …); assay: flow cytometry on human T cells (sheet title 'T cells', GEO Mean against concentration; assay as told in p-1138)
Procedure: as §2

Binder | Kd [1] | Cytotoxicity (% Lysis), SHP-77, whole PBMCs, 1:1 ET ratio, 30 nM [2] | Kd [3] | binding result [4] | binding result [5]
B1 | 0.024 nM | 58.1% | 0.024 nM | – | –
B2 | – | 83.3% | 0.031 nM | binds | –
B3 | 0.033 nM | – | – | – | binds
